This assay has as its target type I IFN-β receptor (human (endogenous in A549 and Daudi)) (UniProt P48551).
Sequence of UniProt P48551 (P48551 27-515): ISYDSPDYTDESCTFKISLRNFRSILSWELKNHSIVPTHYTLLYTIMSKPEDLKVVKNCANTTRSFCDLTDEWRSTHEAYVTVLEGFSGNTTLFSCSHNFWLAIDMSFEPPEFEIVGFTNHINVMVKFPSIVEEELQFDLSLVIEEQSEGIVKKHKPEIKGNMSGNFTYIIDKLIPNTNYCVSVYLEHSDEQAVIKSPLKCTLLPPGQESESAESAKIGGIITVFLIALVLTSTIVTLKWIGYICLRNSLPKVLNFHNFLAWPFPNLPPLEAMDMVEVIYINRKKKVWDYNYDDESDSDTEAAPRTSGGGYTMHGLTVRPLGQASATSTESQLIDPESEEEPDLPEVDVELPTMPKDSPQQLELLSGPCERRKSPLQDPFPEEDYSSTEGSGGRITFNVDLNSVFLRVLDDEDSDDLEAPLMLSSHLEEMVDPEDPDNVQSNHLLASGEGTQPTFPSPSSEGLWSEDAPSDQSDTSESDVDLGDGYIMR

“R27T (rhIFN-β mutein with N-glycosylation at the 25th and 80th amino acid) (from UniProt P01574 22-187) (ligand)” came in with a 50% response in a FACS assay of IFN-inducible expression of MHC class I on the surface of A549 cells of 265 pg/mL; an IC50 in the antiproliferative assay (Daudi cells, 48 hr) of 0.014 ng/mL; an in vitro anti-viral activity (protection of A549 cells against the cytopathic effect of EMCV), average of three lots of 2.99e+08 IU/mg.
“R27TΔGlyc (from UniProt P01574 22-187) (ligand)” came in with a 50% response in a FACS assay of IFN-inducible expression of MHC class I on the surface of A549 cells of 359 pg/mL; an IC50 in the antiproliferative assay (Daudi cells, 48 hr) of 0.022 ng/mL; an in vitro anti-viral activity (protection of A549 cells against the cytopathic effect of EMCV), average of two lots of 2.52e+08 IU/mg.
Turning to “Rebif (recombinant human interferon-β 1a) (from UniProt P01574 22-187) (ligand)”, the 50% response in a FACS assay of IFN-inducible expression of MHC class I on the surface of A549 cells is 238 pg/mL; the IC50 in the antiproliferative assay (Daudi cells, 48 hr) is 0.029 ng/mL; the in vitro anti-viral activity (protection of A549 cells against the cytopathic effect of EMCV) was 2.88e+08 IU/mg.

These data come from PMC4032242.
